The values that follow come from patent US20260193293A1, “PEPTIDES CAPABLE OF INHIBITING PROTEIN-PROTEIN INTERACTIONS AT GABAB1A SUBUNIT AND USES THEREOF” (UNIVERSITY OF COPENHAGEN, priority 2022, published 2026).

Starred links: 1 amine or outer side, 2 acyl side, 3 side chain; linkers in the order of their positions; H or OH if unused. Non-standard residues stand in square brackets, D forms with d. Tyr(Bzl) = Obtyr, O-benzyl-L-tyrosine, O=C([C@H](Cc1ccc(OCc2ccccc2)cc1)N[*:1])[*:2]; Tyr(Me) = Omtyr, O-methyl-L-tyrosine, COc1ccc(C[C@H](N[*:1])C(=O)[*:2])cc1; Obtyr = O-benzyl-L-tyrosine, O=C([C@H](Cc1ccc(OCc2ccccc2)cc1)N[*:1])[*:2]; Phe(4-tBu) = CC(C)(C)c1ccc(C[C@H](N)C(=O)O)cc1; Phe(4-NH2) = Nc1ccc(C[C@H](N)C(=O)O)cc1; Phe(4-F) = N[C@@H](Cc1ccc(F)cc1)C(=O)O; 1Nal = N[C@@H](Cc1cccc2ccccc12)C(=O)O; 2Nal = N[C@@H](Cc1ccc2ccccc2c1)C(=O)O; Cya = N[C@@H](CS(=O)(=O)O)C(=O)O; 3Pal = N[C@@H](Cc1cccnc1)C(=O)O; 4Pal = N[C@@H](Cc1ccncc1)C(=O)O

The labels stand for the following.
B1: peptide 33 (peptide)
peptide: Ac-EDDD[Obtyr]IDWYDSDDD-NH2
SMILES: CC[C@H](C)[C@H](NC(=O)[C@H](Cc1ccc(OCc2ccccc2)cc1)NC(=O)[C@H](CC(=O)O)NC(=O)[C@H](CC(=O)O)NC(=O)[C@H](CC(=O)O)NC(=O)[C@H](CCC(=O)O)NC(C)=O)C(=O)N[C@@H](CC(=O)O)C(=O)N[C@@H](Cc1c[nH]c2ccccc12)C(=O)N[C@@H](Cc1ccc(O)cc1)C(=O)N[C@@H](CC(=O)O)C(=O)N[C@@H](CO)C(=O)N[C@@H](CC(=O)O)C(=O)N[C@@H](CC(=O)O)C(=O)N[C@@H](CC(=O)O)C(N)=O
B2: EDDS(Omtyr)… (peptide)
peptide: Ac-EDDS[Tyr(Me)]VWWGGADTD-NH2
SMILES: COc1ccc(C[C@H](NC(=O)[C@H](CO)NC(=O)[C@H](CC(=O)O)NC(=O)[C@H](CC(=O)O)NC(=O)[C@H](CCC(=O)O)NC(C)=O)C(=O)N[C@H](C(=O)N[C@@H](Cc2c[nH]c3ccccc23)C(=O)N[C@@H](Cc2c[nH]c3ccccc23)C(=O)NCC(=O)NCC(=O)N[C@@H](C)C(=O)N[C@@H](CC(=O)O)C(=O)N[C@H](C(=O)N[C@@H](CC(=O)O)C(N)=O)[C@@H](C)O)C(C)C)cc1
B3: peptide 21 (peptide)
peptide: Ac-EDDD[2Nal]IDWGPTSDDD-NH2
SMILES: CC[C@H](C)[C@H](NC(=O)[C@H](Cc1ccc2ccccc2c1)NC(=O)[C@H](CC(=O)O)NC(=O)[C@H](CC(=O)O)NC(=O)[C@H](CC(=O)O)NC(=O)[C@H](CCC(=O)O)NC(C)=O)C(=O)N[C@@H](CC(=O)O)C(=O)N[C@@H](Cc1c[nH]c2ccccc12)C(=O)NCC(=O)N1CCC[C@H]1C(=O)N[C@H](C(=O)N[C@@H](CO)C(=O)N[C@@H](CC(=O)O)C(=O)N[C@@H](CC(=O)O)C(=O)N[C@@H](CC(=O)O)C(N)=O)[C@@H](C)O
B4: EDDS(4Pal)… (peptide)
peptide: Ac-EDDS[4Pal]VWWGGADTD-NH2
SMILES: CC(=O)N[C@@H](CCC(=O)O)C(=O)N[C@@H](CC(=O)O)C(=O)N[C@@H](CC(=O)O)C(=O)N[C@@H](CO)C(=O)N[C@@H](Cc1ccncc1)C(=O)N[C@H](C(=O)N[C@@H](Cc1c[nH]c2ccccc12)C(=O)N[C@@H](Cc1c[nH]c2ccccc12)C(=O)NCC(=O)NCC(=O)N[C@@H](C)C(=O)N[C@@H](CC(=O)O)C(=O)N[C@H](C(=O)N[C@@H](CC(=O)O)C(N)=O)[C@@H](C)O)C(C)C
B5: ETEFI(Cya)WGPTGDED (peptide)
peptide: Ac-ETEFI[Cya]WGPTGDED-NH2
SMILES: CC[C@H](C)[C@H](NC(=O)[C@H](Cc1ccccc1)NC(=O)[C@H](CCC(=O)O)NC(=O)[C@@H](NC(=O)[C@H](CCC(=O)O)NC(C)=O)[C@@H](C)O)C(=O)N[C@@H](CS(=O)(=O)O)C(=O)N[C@@H](Cc1c[nH]c2ccccc12)C(=O)NCC(=O)N1CCC[C@H]1C(=O)N[C@H](C(=O)NCC(=O)N[C@@H](CC(=O)O)C(=O)N[C@@H](CCC(=O)O)C(=O)N[C@@H](CC(=O)O)C(N)=O)[C@@H](C)O
B6: peptide 35 (peptide)
peptide: Ac-EDDD[Obtyr]IDWGPTSDDD-NH2
SMILES: CC[C@H](C)[C@H](NC(=O)[C@H](Cc1ccc(OCc2ccccc2)cc1)NC(=O)[C@H](CC(=O)O)NC(=O)[C@H](CC(=O)O)NC(=O)[C@H](CC(=O)O)NC(=O)[C@H](CCC(=O)O)NC(C)=O)C(=O)N[C@@H](CC(=O)O)C(=O)N[C@@H](Cc1c[nH]c2ccccc12)C(=O)NCC(=O)N1CCC[C@H]1C(=O)N[C@H](C(=O)N[C@@H](CO)C(=O)N[C@@H](CC(=O)O)C(=O)N[C@@H](CC(=O)O)C(=O)N[C@@H](CC(=O)O)C(N)=O)[C@@H](C)O
B7: EDDS(3Pal)… (peptide)
peptide: Ac-EDDS[3Pal]VWWGGADTD-NH2
SMILES: CC(=O)N[C@@H](CCC(=O)O)C(=O)N[C@@H](CC(=O)O)C(=O)N[C@@H](CC(=O)O)C(=O)N[C@@H](CO)C(=O)N[C@@H](Cc1cccnc1)C(=O)N[C@H](C(=O)N[C@@H](Cc1c[nH]c2ccccc12)C(=O)N[C@@H](Cc1c[nH]c2ccccc12)C(=O)NCC(=O)NCC(=O)N[C@@H](C)C(=O)N[C@@H](CC(=O)O)C(=O)N[C@H](C(=O)N[C@@H](CC(=O)O)C(N)=O)[C@@H](C)O)C(C)C
B8: peptide 20 (peptide)
peptide: EDDDAIDWYDSDDD
modifications: N-terminal acetyl; C-terminal amide; 2Nala (3-(2-naphthyl)-L-alanine) at position 5
B9: EDDSDVW(1Nala)GGADTD (peptide)
peptide: Ac-EDDSDVW[1Nal]GGADTD-NH2
SMILES: CC(=O)N[C@@H](CCC(=O)O)C(=O)N[C@@H](CC(=O)O)C(=O)N[C@@H](CC(=O)O)C(=O)N[C@@H](CO)C(=O)N[C@@H](CC(=O)O)C(=O)N[C@H](C(=O)N[C@@H](Cc1c[nH]c2ccccc12)C(=O)N[C@@H](Cc1cccc2ccccc12)C(=O)NCC(=O)NCC(=O)N[C@@H](C)C(=O)N[C@@H](CC(=O)O)C(=O)N[C@H](C(=O)N[C@@H](CC(=O)O)C(N)=O)[C@@H](C)O)C(C)C
B10: RRRR(2Nala)… (peptide)
peptide: Ac-RRRR[2Nal]EDSDDYDDIDDDW-NH2
SMILES: CC[C@H](C)[C@H](NC(=O)[C@H](CC(=O)O)NC(=O)[C@H](CC(=O)O)NC(=O)[C@H](Cc1ccc(O)cc1)NC(=O)[C@H](CC(=O)O)NC(=O)[C@H](CC(=O)O)NC(=O)[C@H](CO)NC(=O)[C@H](CC(=O)O)NC(=O)[C@H](CCC(=O)O)NC(=O)[C@H](Cc1ccc2ccccc2c1)NC(=O)[C@H](CCCNC(=N)N)NC(=O)[C@H](CCCNC(=N)N)NC(=O)[C@H](CCCNC(=N)N)NC(=O)[C@H](CCCNC(=N)N)NC(C)=O)C(=O)N[C@@H](CC(=O)O)C(=O)N[C@@H](CC(=O)O)C(=O)N[C@@H](CC(=O)O)C(=O)N[C@@H](Cc1c[nH]c2ccccc12)C(N)=O
B11: EDDSDVW(Obtyr)GGADTD (peptide)
peptide: Ac-EDDSDVW[Tyr(Bzl)]GGADTD-NH2
SMILES: CC(=O)N[C@@H](CCC(=O)O)C(=O)N[C@@H](CC(=O)O)C(=O)N[C@@H](CC(=O)O)C(=O)N[C@@H](CO)C(=O)N[C@@H](CC(=O)O)C(=O)N[C@H](C(=O)N[C@@H](Cc1c[nH]c2ccccc12)C(=O)N[C@@H](Cc1ccc(OCc2ccccc2)cc1)C(=O)NCC(=O)NCC(=O)N[C@@H](C)C(=O)N[C@@H](CC(=O)O)C(=O)N[C@H](C(=O)N[C@@H](CC(=O)O)C(N)=O)[C@@H](C)O)C(C)C
B12: EDDS(1Nala)… (peptide)
peptide: Ac-EDDS[1Nal]VWWGGADTD-NH2
SMILES: CC(=O)N[C@@H](CCC(=O)O)C(=O)N[C@@H](CC(=O)O)C(=O)N[C@@H](CC(=O)O)C(=O)N[C@@H](CO)C(=O)N[C@@H](Cc1cccc2ccccc12)C(=O)N[C@H](C(=O)N[C@@H](Cc1c[nH]c2ccccc12)C(=O)N[C@@H](Cc1c[nH]c2ccccc12)C(=O)NCC(=O)NCC(=O)N[C@@H](C)C(=O)N[C@@H](CC(=O)O)C(=O)N[C@H](C(=O)N[C@@H](CC(=O)O)C(N)=O)[C@@H](C)O)C(C)C
B13: R4-21 (peptide)
peptide: Ac-RRRREDDD[2Nal]IDWGPTSDDD-NH2
SMILES: CC[C@H](C)[C@H](NC(=O)[C@H](Cc1ccc2ccccc2c1)NC(=O)[C@H](CC(=O)O)NC(=O)[C@H](CC(=O)O)NC(=O)[C@H](CC(=O)O)NC(=O)[C@H](CCC(=O)O)NC(=O)[C@H](CCCNC(=N)N)NC(=O)[C@H](CCCNC(=N)N)NC(=O)[C@H](CCCNC(=N)N)NC(=O)[C@H](CCCNC(=N)N)NC(C)=O)C(=O)N[C@@H](CC(=O)O)C(=O)N[C@@H](Cc1c[nH]c2ccccc12)C(=O)NCC(=O)N1CCC[C@H]1C(=O)N[C@H](C(=O)N[C@@H](CO)C(=O)N[C@@H](CC(=O)O)C(=O)N[C@@H](CC(=O)O)C(=O)N[C@@H](CC(=O)O)C(N)=O)[C@@H](C)O
B14: Scr-20 (peptide)
peptide: Ac-[2Nal]EDSDDYDDIDDDW-NH2
SMILES: CC[C@H](C)[C@H](NC(=O)[C@H](CC(=O)O)NC(=O)[C@H](CC(=O)O)NC(=O)[C@H](Cc1ccc(O)cc1)NC(=O)[C@H](CC(=O)O)NC(=O)[C@H](CC(=O)O)NC(=O)[C@H](CO)NC(=O)[C@H](CC(=O)O)NC(=O)[C@H](CCC(=O)O)NC(=O)[C@H](Cc1ccc2ccccc2c1)NC(C)=O)C(=O)N[C@@H](CC(=O)O)C(=O)N[C@@H](CC(=O)O)C(=O)N[C@@H](CC(=O)O)C(=O)N[C@@H](Cc1c[nH]c2ccccc12)C(N)=O
B15: EDDSDVW(2Nala)GGADTD (peptide)
peptide: Ac-EDDSDVW[2Nal]GGADTD-NH2
SMILES: CC(=O)N[C@@H](CCC(=O)O)C(=O)N[C@@H](CC(=O)O)C(=O)N[C@@H](CC(=O)O)C(=O)N[C@@H](CO)C(=O)N[C@@H](CC(=O)O)C(=O)N[C@H](C(=O)N[C@@H](Cc1c[nH]c2ccccc12)C(=O)N[C@@H](Cc1ccc2ccccc2c1)C(=O)NCC(=O)NCC(=O)N[C@@H](C)C(=O)N[C@@H](CC(=O)O)C(=O)N[C@H](C(=O)N[C@@H](CC(=O)O)C(N)=O)[C@@H](C)O)C(C)C

The target in the assay is Sushi domains (SD1/2) protein of GABAB1a (GB1a). Briefly: FP competition vs TAMRA AJAP-1probe.
Chain of Sushi domains (SD1/2) protein of GABAB1a (GB1a) (Q9Z0U4 29-158): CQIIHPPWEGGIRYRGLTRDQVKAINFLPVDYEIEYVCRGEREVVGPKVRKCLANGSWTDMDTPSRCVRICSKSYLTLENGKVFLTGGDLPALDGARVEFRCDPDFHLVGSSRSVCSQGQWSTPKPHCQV
B1 came in with an inhibition constant Ki of 9.3 nM.

Consider B2, for which the inhibition constant (Ki) is 101 nM.

On to B3, for which the inhibition constant Ki came to 5.3 nM.

Molecule B4 showed an inhibitory constant (Ki) of 424 nM.

On to B5, for which the Ki is 12 nM.

As for Ac-EDDS[Phe(4-tBu)]VWWGGADTD-NH2 [EDDS(Buphe)…], the Ki came to 269 nM.

Molecule B6 registered a Ki of 9.5 nM.

As to Ac-EDDS[Phe(4-F)]VWWGGADTD-NH2 [EDDS(Fphe)…], the Ki was determined as 117 nM.

In turn, B7 had an inhibitory constant (Ki) of 373 nM.

The molecule B8 yielded an inhibition constant (Ki) of 1.5 nM.

The molecule B9 registered an inhibition constant Ki of 499 nM.

The molecule B10 showed an inhibition constant Ki of 143000 nM.

The molecule B11 returned an inhibition constant Ki of 3860 nM.

Ac-EDDS[Phe(4-NH2)]VWWGGADTD-NH2 [EDDS(Aphe)…] had a Ki of 184 nM.

With B12, the Ki came out at 69 nM.

In turn, B13 gave a Ki of 13 nM. Compared with the last molecule, the Ki is about 5.3-fold lower.

For B14, the inhibition constant (Ki) is 31200 nM.

As for B15, the inhibition constant (Ki) was 814 nM.

For orientation: Ki means a measure of affinity in units of concentration, obtained from inhibition or displacement. A low value points to tighter binding.
